Data: article PMC10397344

System: MLH1 wt;PMS2 wt
Assay: EMSA
Conditions: untreated; ATP; 20 mM HEPES pH 7.5, 40 ug/ml BSA, 1 mM DTT, 100 mM NaCl, 1.5 ul of 10 mM ATP added, 95 ng DNA, on ice 5 min; 4% native PAGE, 0.5xTBE pH 7.5

In the case of GT-DNA-substrate (G/T mismatch), the binding signal (% (reference)) is reported as 100.
